Data from the RNAGym collection of RNA variant scans (doi:10.1073/pnas.2313332121).

B1: TPR t1 (parent)
chain: GACCAAUCUGCCCUCAGAGCUCGAGAACAUCUUCGGAUGCAGAGGAGGCAGGCUUCGGUGGCGCGAUAGCGCCAACGUCCUCAACCUCCAAUGCAUCCCACCACAUGAUGAUGCCUGAAGAGCCUUGGUUUUUUG

Variants of: B1
Test: polymerase ribozyme fitness, log enrichment relative to wild type (log ratio); higher = more active; in vitro selection for triplet polymerase activity
Procedure, shortened: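 Streptavidin-bead capture of gel-excised extended constructs, followed by RT-PCR, closed a single triplicate in vitro selection round. That round began by annealing PCR-built, transcribed mutant libraries of each subunit of a heterodimeric triplet polymerase ribozyme with a biotinylated primer, the partner subunit and triplets, then incubating them frozen at −7 °C. After Illumina sequencing of inputs and outputs, genotypes needed ≥10 input reads and ≥1 read per output. Fitness is the base-2 logarithm of genotype enrichment over wild-type enrichment, using inverse-variance-weighted replicate averages.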

Variant	polymerase ribozyme fitness (log ratio)
GGCCAAUCUGGCCUCAGAGCUCGAGAACAUCUUCGGAUGCAGAGGAGGCAGGCUUCGGUGACGCGAUAGCGCCAACGUCCUCAACCUCCAAUGCAUCCCACCACAUGAUGAUGCCUGAAGAGCCUUGGAUUUUUU [A2G C11G G61A U129A G135U]	-2.91
GGCCAAUCUGCCCUCAGAGAUCGAGAACAUCUUCGGAUGCAGAGGAGGCAGGCUUCGGUGGCCCGAUAGCGCCAACGUCCUCAACCUCCAAUGCAUCCCACCACAUGAUGAUGACUGAAGAGCCUUGGUUUUUUG [A2G C20A G63C C114A]	-3.77
GGCCAAUCUGCCCUCAGAGCUCGAGAACAUCUUCGGAUGCAGAGGAGGCAGGCUUCGGUGGCGCGAUAGCGUCAACGUCCUCAACCUUCAAUGCAUCCCACCACAUGAUGAUGCCUGAAGAGCAUUGGUUUUUUG [A2G C72U C88U C124A]	1.45
GCCCAAUCUGCCCUCAGAGCACGAGAACAUCUUCGGAUGCAGAGGAGGCAGGCUUCGGUGGCGCGAUAGCGCCAACGUCCUCAACCUCGAAUGCAUCCCACCACAUGAUGAUGCCUGAAGAGCCUUGGUUUUUUG [A2C U21A C89G]	-4.49
GGCCAAUGUGCCCUCAGAGCUCGAGAACAUCUUCGGAUGCAGAGGAGGCAGGCUUCUGUGGCGCGAUAGCGCCAACGUCCUCAAACUCCAAUGCAUCCCACCACAUGAUGAUGCCUGAAGAGCCUUGGUUUUUUG [A2G C8G G57U C85A]	-1.4
GGCCAAUCUGCCCUCAGAGCUCGAGAACAUCUUCGAAUGCAGAGGAGGGAGGCUUCGGUGUCGCGAUAGCGCCAACGUCCUCUACCUCCAAUGCAUCCCACCACAUGAUUAUGCCUGAAGAGCCUUGGCUUUUUG [A2G G36A C49G G61U A83U G110U U129C]	-4.82
GGCCAAUCUGCCCUCAGAACUCGAGAACAUCUUCGGAUGCAGAGGAGGCAGGCUUCGGUGGCGCGAUAGCGCCAACGUCCUCAACCUCCAAUGCAUCCCACCACAUGAUGAUGCCUGAAGAGCCUUGGUUUUUUG [A2G G19A]	-2.68
GGCCAAUCUGCCCUCAGAUCUCGAGAACAUCUUCGGAUGCAGAGGAGGCAGGCUUCGGUGGUGCGAUAGCGCCAACGUCCUCAACUUCCAAUGCAUCCCACCACAUGAUGAUGCCUGAAGAGCCUUGGUUUUUUG [A2G G19U C62U C86U]	-3.94
GGCCAAUCUGGCCUCAGAGCUCGAGAACAUCUUCGGAGGCAGAGGAGGCAGGCUUCGGUGGCGCGAUAGCGCCAACGUCCUGAACCUCCAAUGCAUCCCACCACAUGAUGAUGCCUGAAGAGCCUUGGUUUUUUG [A2G C11G U38G C82G]	-4.28
GGCUAAUCUGCCCUCAGAGCUCGAGAACAUCUUCAGAUGCAGAGGAGGCAGGCUUCGGUGGCGCGAUAGCGCCAACAUCCUCAACCUCCAAUGCAUCUCAACACAUGAUGAUGCCUGAAGAGCCUUGGUUUUUUG [A2G C4U G35A G77A C98U C101A]	-6.32
GGCCAAUCUGACCUCAGAGCUCGAGAACAUCUUCGGAUGCAGAGGAGGCAGGCUUCGGUGGCGCGAUAGCGCCAACGUCCUCAACCUCCAAUGCAUCCCACCACAUGAUGAUGCCUGAAGAGCCUUGGUUUUUUG [A2G C11A]	-1.77
GGCCAAUCUGCCCUCAGAGCUCGAGAACAUCUUCGGAUGCAGAGGAGGCAGGCUUCGGUGGCGCGAUAGCGCCAACGUCCUCAACCUGCAAUGCAUCCCACCACAUGAUGAUCCCUGAAGAGCCUUGAGUUUUUG [A2G C88G G113C G128A U129G]	-5.6
GGCCAAUCUGCCCUCAGAGCUCGAGAACAUCUUAGGAUGCAGAGGAGGCAGGCUACGGUGGCGCGAUAGCGCCAACGUCCUCAACCUCCAAUGCAUCCCACCACAUGAUGACGCCUGAAGAGCCUUGGUUUUUUG [A2G C34A U55A U112C]	-0.554
GGCCAAUCUGCCCUCAGAGCUCGAGAACAUCUUCGGAUGCAGAGGAGGCAGGCUUCGAUGGCGCGAUAGCGCCAACGUCCUCAACCUCCAAUGCAUCCCACCACAAGAUGAUGCCUGAAGAUUCUUGGUUUUUUG [A2G G58A U106A G122U C123U]	0.431
GGCCAAUCUGCCCUCAGAGCUCGAGAACAUCUUCGGAUGCAGAGGAGGCAGGCUUGGGUGGCGCGAUAGCGCCAACGUCCUCAACCUCCAAUGCAUCCCACCACAUGAUGAUGCCUGAAGAGCCUUGGUUUUUUG [A2G C56G]	-1.69
GGCCAAUCUGCCCUCAGAGCUCGAGAACAUCUUCGGAUGCAGAGGAGGCAGGCUUUGGUGGCGCGAUAGCGCCAACGUCCUCAACCUCCAAUGCAUCCCACCACAUGAUGAUGCCUGAAGAGCCUUGGUUUUUUG [A2G C56U]	0.13
GGCCAAUCUGCCCUCAGAGCUCGAGAACAUCUUCGGAUGCAGAGGAGGCAGGCUUCGGUGGCGCGAUAGCGCCAACGUCCUCAACCUCCAAUGCAUCCCACCAUAUGAUGAUGCCUGAAGAGCCUUGGUUUUUUG [A2G C104U]	0.0974
GGCCAAUCUUCCCUCAGAGCUCGAGAACAUCUUCGGAUGCAGAGGAGGCAGGCUUCGGUGGCGCGAUAGCGCCAACGUCCUCAACCUUCAAUGCAUCCCACCACAUGAUGAUGCCUGAUGAGCCUUGGUUUUUUG [A2G G10U C88U A119U]	-0.34
GGCCAAUCUGCCCUCAGAGCUCGAGAACAUCUUCGGAUUCAGAGGAGGCAGGCUUCGGUGGCGCGAUAGCGCCAACGUCCUCAACCUCCAAUGCAUCCCACCACAUGAUGAUGCAUGAAGAGCCUUGGUUUUUUG [A2G G39U C115A]	-1.93
GCCCAAUCUGCCCUCAGAGCUCGAGAACAUCUUCGGAUGCAGAGGAGGCAGGCUCCGGUGGCGCGAUAGCGCCAACGUCCUGAACCUCCACUGCAUCCCACCACUUGAUGAUGCCUGAAGAGGCUUGGUUUUUUG [A2C U55C C82G A91C A105U C123G]	-6.66
GGCCUAUCUGCCCUCAGAGCUCGAGAACAUCUUCGGAUGCAGAGGAGGCAGGCUUCGGUGGCGCGAUAGCUCCAACGUCCUCAACCUCCAAUGCAUCCCACCACAUGAUGUUGCCUGAAAAGCCUUGGUUUUUUG [A2G A5U G71U A111U G120A]	-5.48

Variant	polymerase ribozyme fitness (log ratio)
GGCCAAUCUGCCCUCCGAGCUCGAGAACAUCUUCGGAUGCAGAGGAGGCAGGCUUCGGUGGCGCGAUAGCGCCAACGUCCUCAACCUCAAAUGCAUCCCACCACAUGAUGAUGCCUGAACAGCCUUGGUUUUAUC [A2G A16C C89A G120C U133A G135C]	-2.39
GGCCAAUCUGCCCUCAGAGCUCGAGAACAUCUUCGGAUGUAGAGGAGGCAGGCUCCGGUGGCGCGAUAGCGCCAACGUCCUCAACCUCCAAUGCAUCCCACCACAUGAUGAUGCCUGAAGAGCCUUGGUUUUUUG [A2G C40U U55C]	-1
GGCCAAUCUGCCCUCAGAGCUCGAGAACAUCUUCGGAUGCAGAGGAGGCAUGCUUCGGUGGCGCGAUAGCGCCAACGUCCUCAACCUCCAAUGCAUCCCACCACAUGAUGAUGUCUGAAGAGCCUUGGUUUUUUG [A2G G51U C114U]	-6.82
GGCCAAUCUGCGCUCAGAGAUCGAGAACAUCUUCGGAUGCAGAGGAGGCAGGCUUCGGUGGCGCGAUAUCGCCAACGCCCUCAACCUCCAAUGCAUCCCACCACAUGAUGAUGCCUGAAGAGCCUUGGUCUUUUG [A2G C12G C20A G69U U78C U130C]	-1.63
GGCCAAUCUGCGCUCAAAGCUCGAGAACAUCUUCGGAUGCAGAGGAGGCAGGCCUCGGUGGCGCGAUAGCGCCAACGUCCUCAACCUUCAUUGCAUCCCAUCACUUGAUGAUGGCUGAAGAGCCUUGGUUAUUUG [A2G C12G G17A U54C C88U A91U C101U A105U C114G U131A]	-5.89
GGCUAAUCUGCCCUCAGAGCUCGAGAACAUCUUCGGAUGCAGAGGAGGCAGGCUUCGGUGGCGCGAUAGCGCCAACGUACUCAACCUCCAAUGCAUCCCACCACAUGAUGAUGCAUGAAGAGCCUUGGUUUUUUG [A2G C4U C79A C115A]	-5.2
GGCCAAUCUGCCCUCAGAGCUCGAGAACAUCUUCGGAUGCAGAGGAGGCAGGCUUCGGUGGCGCGAUAGCGCCCACGUCCUCAACCUCCAAUGCAUCCCACCACAUGAUGAUGCCUGAAGAGCCUUGGUUUUUUG [A2G A74C]	-0.276
GGCCAAUCUGCUCUCAGAGCUCGAGAACAUCUUCGGAUGCAGAGGAGGCAGGCUUCGGUGGCGCGAUAGCGCCAACGUCCUCAACCUCGAAUGCAUCCCACCACAUGAUGAUGCCUGAAGAGCCUUGGUUUUUUG [A2G C12U C89G]	-0.965
GCCCAAUCUGCCCUCAGAGCUCGAGAACAUCUUCGGAUGCAGAGGAGGCAGGCUUCGGUGGCGCGAUAGCGCCAACGUCCUCAACCUCCAAUGCAUCCCACCACAUGAUGAUGCCAGAAGAGCCUUGGUUUUUUG [A2C U116A]	-4.2
GGCCAAUCUGCCCUCAGAGCUCGAGAACGUCUUCGGAUGCAGAGGAGGCAGGCUUCGGUGGCGCGAUAGCGCCAACGUCCUCAACCUCCAAUGCAUCCCACCACAUGAUGAUGCCUGAAGAGCCUUGGUUUUUUG [A2G A29G]	-1.34
GGCCAAUCUGCCCUCAGAGCUCGAGAACAUCUUCGGAUGCAGAGGAGGCUGGCUUCGGUGGCGCGAUAGCGCCAACGUCCACAACCUCCAAUGCAUCCCACCACAUGAUGAUGCCUGAAGAGCCUUGGUUUUUUG [A2G A50U U81A]	0.17
GCCCAAUCUGCCCUCAGAGCUCGAGAACAUCUUCGGAUGCAGAGGAGGCAGGCUUCGGUGGCGCGAUAGCGCCAACGCCCUCAACCUCCAAUGCAUCCCACCACAUGAUGAUGCCUGAAGAGCCUUGGUUUUUUG [A2C U78C]	-1.64
GGCCAAUCUGCCCUCAGAGCUCGAGAACAUCUUCGGAUGCAGAGGAGUCAGGGUUCGGUGGCGCGAUAGCGCCAACGUCCUCAACUUCCAAUGCAUCACACCACAUGAUGAUGCCUGAAGAGGAUUGGUUUUUUG [A2G G48U C53G C86U C98A C123G C124A]	-6.57
GGCCAAUCUGCCCUCAGAGCUCGAGAACAUCUUCGGAUGCAGAGGAGGCAAGCUUCGGUGGCGCGAUAGCGCCAACGUCCUCAACCUCCAAUGCAUCCCACCACAUGAUGAUGCCUGAAGAGCCUUGGUUUUUUG [A2G G51A]	-2.94
GGCCAAUCUGCCCUCAGAGCUCGAGAACAUCUUCGGAUGCAGAGGAGGCAGGCUUCGGUAGCGCGAUAGCGCCAACGUCCUCAACCUCCAAUGCAUCCCACCACAUGAUGAUGCCUGAAGAGCCUUGGUUUUUUG [A2G G60A]	-0.122
GGCCAAUCUGCCCUCAGAGCUCGAGAUCAUCUUCGGAUGCAGAGGAGGCAGGCUUCGGUGGCGCGAUAGCGCGAACGUGCUCAACCUCCAAUGCAUCCCACCAUAUGAUGAUGCCUGAAGAGCCUUGGUUUUUUG [A2G A27U C73G C79G C104U]	-6.8
GGCCAAUCUGCCCUCAGAGCUCGAGAACAUCUUCGGAUGCAGAGGAGGCAGGCUUCGGUGGCGCGAUAGCGCCAACGUCCUCAACCUCCAAUGCAUCCUAACACAUGAUGAUGCCUGAAGGGCGUUGGUUUUUUG [A2G C99U C101A A121G C124G]	-2.5
GGCCAAUUUGCCCUCAGAGCUCGAGAACAUCUUCGGAUGCAGAGGAGGCAGGCUUCGGUGGCGCGAUAGCGCCAACGUCCUCGACCUCCAAUGCAUCCCACCACAUGAUGAUGCCUGAAGAGCCUUGGUUUUUUG [A2G C8U A83G]	-0.602
GGCCAAUCUGCCCUCAGAGCUCGAGAACAUCUUCGGAUGCAGAGGAGGCAGGCUUCGGUGGCGCGAUAGCGCGAACGUCCUCAAACUCCAAUGCAUCCCACCACAUGAUGAUACCUGAACAGCCUUGGUUUUUUG [A2G C73G C85A G113A G120C]	-3.08
GGCCAAUCUGCCCUCAGAGCUCGAGAACAUCUUCGGAUGAAGAGGAGGCAGGCUUCGAUGGCGCGAUAGCGCCAACGUCCUCAACCUCCAAUGCAUCCCACCACAUGAUGAUGCCUGAAGAGCCUUGGUUUUUUG [A2G C40A G58A]	-1.21
GGCCAAUCUGCCCUCAGAGCUCGAGAACAUCUUCGGAUGCAGAGGACGCAGGCUUCGGUGGCGCGAUAGCGCCAACGUCCGCAACCUCCAAUGCAUCCCACCACAUGAUGAUGCCUGAAGAGCCUUGGUUUUUUG [A2G G47C U81G]	-3.47
